Laboratory results taken from patent US5723594, “High affinity PDGF nucleic acid ligands” (NeXstar Pharmaceuticals, Inc.).

Experiments:
Conditions in all cases: tags: R&D Systems, carrier-free, E. coli produced; chain copies: 2 (homodimer, inferred); label: 5'-32P; three-way helix junction
PDGF-BB [1] = target: T1, PDGF-BB (Homo sapiens, UniProt P01127 P01127:82-190); test: cell_activity; slightly more efficient than 36t; thymidine incorporation
Protocol: (§1) The incorporation of [^3H]thymidine into PAE cells expressing PDGF β-receptor in response to 20 ng/ml of PDGF-BB or 10% fetal calf serum and in the presence of different concentrations of DNA ligands was performed as described (Mori et al., (1991) *J. Biol. Chem.* 266, 21158–21164). After incubation for 24 h at 37° C., ^3H-radioactivity incorporated into DNA was determined using a β-counter.
(§2) We furthermore investigated the ability of the DNA ligands to inhibit the mitogenic effects of PDGF-BB on PAE cells expressing PDGF β-receptors. […] The control ligand T39 had no effect. Moreover, none of the ligands inhibited the stimulatory effects of fetal calf serum on [^3H]thymidine incorporation in these cells, showing that the inhibitory effects are specific for PDGF.

PDGF-BB [2] = target: T1, PDGF-BB; test: cell_activity; slightly less efficient than 36t; thymidine incorporation
Protocol: as §1, §2

PDGF-BB [3] = target: T1, PDGF-BB; test: cell_activity; inhibition of thymidine incorporation in PAE cells expressing PDGF beta-receptor, 20 ng/ml PDGF-BB
Protocol: as §1, §2

T1 sequence (P01127 82-190, one chain of several): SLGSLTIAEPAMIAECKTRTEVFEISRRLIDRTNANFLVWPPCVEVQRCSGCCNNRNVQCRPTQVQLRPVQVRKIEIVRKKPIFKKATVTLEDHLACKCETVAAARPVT

TACTCAGGGCACTGCAAGCAATTGTGGTCCCAATGGGCTGAGTAT (ssDNA, 3'-3' linked inverted T at 3' end) [41t]
IC50 (PDGF-BB [1]): < 2.5 nM

TGGGAGGGCGCGTTCTTCGTGGTTACTTTTAGTCCCGT (ssDNA, 3'-3' linked inverted T at 3' end) [20t]
IC50 (PDGF-BB [2]): > 2.5 nM

CACAGGCTACGGCACGTAGAGCATCACCATGATCCTGTGT (ssDNA, 3'-3' linked inverted T at 3' end) [36t]
IC50 (PDGF-BB [3]): 2.5 nM
